Experimental findings from patent publication US20220282217A1 (BIONTECH US, published 2022) are described below.

In assay [1] the target is T1, HLA-B07.02 (human).
T1 construct: Purified class I MHC
The assay can be described thus: pMHC-I dissociation half-life, 125I-b2m. The procedure, abridged:
(§1)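 Biotinylated MHC-I heavy chain made in E. coli, captured on streptavidin plates and complexed with peptide and radiolabelled light chain. Dissociation started with excess unlabelled light chain at 37 °C. Stability is the half-life in hours from scintillation counts.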

In assay [2] the target is T2, HLA-B08.01 (human).
T2 construct: Purified class I MHC
Description: pMHC-I dissociation half-life, 125I-b2m. Summed up: as §1

Assay [3] deals with T1, HLA-B07.02. Description: competition with radiolabeled reference peptide, purified MHC I. The method, then: (§2) Peptides were incubated at varying concentrations with these complexes for 2 days, and the amount of remaining radiolabeled peptide bound to […] was measured using size exclusion gel-filtration.
Assay [4] deals with T3, HLA-A03.01 (human).
T3 construct: Purified class I MHC
Description: pMHC-I dissociation half-life, 125I-b2m. Summed up:
as §1

In assay [5] the target is T4, HLA-A11.01 (human).
T4 construct: Purified class I MHC
The assay can be described thus: pMHC-I dissociation half-life, 125I-b2m. The procedure, abridged:
as §1

Assay [6] deals with T5, HLA class I molecule A02.01.
T5 construct: Purified MHC class I complex; also called HLA-A02:01
Description: competition with radiolabeled reference peptide on purified MHC I. On the procedure:
as §2

Assay [7] shares this target. Description: pMHC-I dissociation assay with 125I-labeled beta2m light chain at 37 C, scintillation counts; time in hours for half of the complexes to dissociate. On the procedure:
(§3) Briefly, synthetic genes encoding biotinylated MHC-I heavy and light chains are expressed in E. coli and purified from inclusion bodies using standard methods. […] These reactions are carried out in streptavidin coated microplates to bind the biotinylated MHC-I heavy chains to the surface and allow measurement of radiolabeled light chain to monitor complex formation. Dissociation is initiated by addition of higher concentrations of unlabeled light-chain and incubation at 37° C. Stability is defined as the length of time in hours it takes for half of the complexes to dissociate, as measured by scintillation counts.

Assay [8] addresses T6, HLA-A01.01 (human).
T6 construct: As for HLA-A02.01
The assay can be described thus: competition vs radiolabeled reference peptide on purified MHC I, gel filtration. On the procedure:
as §2

The target in assay [9] is T7, HLA-A03.01 (human).
T7 construct: As for HLA-A02.01
The assay is described as above. The method, then: as §2

In assay [10] the target is HLA-B08.01 class I MHC molecule (prepared complex) (human). Description: dissociation of peptide-MHC-I complex at 37 C, 125I-labelled b2m, scintillation. The method, then:
as §3

In assay [11] the target is HLA-A*30:02 (human). The assay can be described thus: peptides eluted from HLA-peptide complexes by acid wash, targeted MS/MS (PRM); 293T cells transduced with GATA3 neoORF, expressing HLA-A*30:02. The method, then: Between 50 and 700 million of the transduced cells expressing peptides encoded by the GATA3 neoORF sequence were cultured and peptides were eluted from HLA-peptide complexes using an acid wash. Eluted peptides were then analyzed by targeted MS/MS using PRM.

Assay [12] concerns the target T8, HLA class I molecule B07.02.
T8 construct: Purified MHC class I complex; also called HLA-B07:02
Description: competition with radiolabeled reference peptide on purified MHC I. On the procedure: as §2

Assay [13] addresses T9, HLA class I molecule B08.01.
T9 construct: Purified MHC class I complex; also called HLA-B08:01
The assay can be described thus: pMHC-I dissociation assay with 125I-labeled beta2m light chain at 37 C, scintillation counts; time in hours for half of the complexes to dissociate. The method, then:
as §3

In assay [14] the target is T8, HLA class I molecule B07.02. Described as above. On the procedure:
as §3

In assay [15] the target is T10, HLA-B08.01 (human).
T10 construct: As for HLA-A02.01
The assay can be described thus: competition vs radiolabeled reference peptide on purified MHC I, gel filtration. The method, then:
as §2

For assay [16], the target named is T10, HLA-B08.01. Description: pMHC-I complex dissociation at 37 C, 125I-b2m, half-life. The procedure, abridged: as §1
Assay [17] has as its target HLA-A02.01 (human). The assay can be described thus: competition vs radiolabeled reference peptide on purified MHC I, gel filtration. The method, then: as §2
In assay [18] the target is HLA-A02.01 (human). Description: pMHC-I complex dissociation at 37 C, 125I-b2m, half-life. The procedure, abridged:
as §1

Assay [19] deals with T3, HLA-A03.01. The assay can be described thus: competition with radiolabeled reference peptide, purified MHC I. The method, then:
as §2

In assay [20] the target is T4, HLA-A11.01. The assay is described as above. On the procedure:
as §2

In assay [21] the target is T11, HLA class I molecule A03.01.
T11 construct: Purified MHC class I complex; also called HLA-A03:01
Description: competition with radiolabeled reference peptide on purified MHC I. On the procedure: as §2

Assay [22] has the same target. Description: pMHC-I dissociation assay with 125I-labeled beta2m light chain at 37 C, scintillation counts; time in hours for half of the complexes to dissociate. The method, then: as §3
The target of assay [23] is T12, HLA-B07.02 (human).
T12 construct: As for HLA-A02.01
Description: competition vs radiolabeled reference peptide on purified MHC I, gel filtration. On the procedure: as §2

Assay [24] concerns the target T13, HLA-A02.01 (human).
T13 construct: Purified class I MHC
The assay can be described thus: pMHC-I dissociation half-life, 125I-b2m. Summed up:
as §1

B1: LPSQRRNHWM (peptide)
peptide: LPSQRRNHWM
notes: also called TP53, CSES
Take B1: the “Stability (T1/2 (h))” value turned out to be 6.5 h in assay [1] and 0.7 h in assay [2]. Further, the IC50 in assay [3] is 10 nM.

B2: VVGACGVGK (peptide)
peptide: VVGACGVGK
notes: also called KRAS, G12C
As for B2, the “Measured stability” value in [4] is 5 h; in assay [5] it was 10 h.

B3: VVGADGVGK (peptide)
peptide: VVGADGVGK
notes: also called KRAS, G12D
As to B3, in [5], the “Measured stability” value stood at 3.4 h.

B4: TLQRSSLWCL (peptide)
peptide: TLQRSSLWCL
notes: also called GATA3 . . ; CSNH
Take B4: the IC50 in assay [6] was 118 nM. In assay [7], the “Observed MHC Stability” value turned out to be 0.5 h.

B5: HPRPAPASA (peptide)
peptide: HPRPAPASA
notes: also called TP53, SHST
On to B5, for which the figures for the “Stability (T1/2 (h))” value in assay [1] and in assay [2] were 4.9 h and 0 h, respectively. In assay [3], this molecule showed an IC50 of 11 nM.

B6: MSVCFFFFCY (peptide)
peptide: MSVCFFFFCY
notes: also called CNOT1(-1)
Molecule B6 came in with an IC50 in [8] of 4370 nM.

B7: MLTGPPARV (peptide)
peptide: MLTGPPARV
notes: also called GATA3 . . ; CSNH
As for B7, the IC50 in [6] was 10.6 nM. In [7], the “Observed MHC Stability” value turned out to be 5.8 h.

B8: YMANGSLLNY (peptide)
peptide: YMANGSLLNY
notes: also called BTK, C481S
Regarding B8, the IC50 in assay [9] amounted to 95.9 nM; in assay [8] it was 13.2 nM.

B9: EGFR_T790M peptide QLIMQLMPF (peptide)
peptide: QLIMQLMPF
notes: synthetic peptide holding the EGFR T790M mutation
For B9, the “Stability (half-life (hr.))” value in assay [10] was determined as 0 h.

B10: GATA3 neoORF peptide IMKPKRDGY (peptide)
peptide: IMKPKRDGY
With B10, the binding result in assay [11] is “binds”.

B11: FATLQRSSL (peptide)
peptide: FATLQRSSL
notes: also called GATA3 . . ; CSNH
As to B11, the IC50 in assay [12] came out at 14 nM. Further, the “Observed MHC Stability” value in [13] amounted to 0 h; in [14], 0.7 h.

B12: EGFR_T790M peptide VQLIMQLMPF (peptide)
peptide: VQLIMQLMPF
notes: as for B9
Take B12: the “Stability (half-life (hr.))” value in [10] turned out to be 0 h.

B13: WLHKRGKYI (peptide)
peptide: WLHKRGKYI
notes: also called AKT1, E17K
For the molecule B13, the IC50 in [15] came to 417 nM. For the same molecule, the “Stability (T1/2 (h))” value in [16] turned out to be 1.3 h.

B14: LSFLSSWDY (peptide)
peptide: LSFLSSWDY
notes: also called C15ORF40(+1)
B14: the IC50 in [8] amounted to 52.9 nM.

B15: LATEKSRWSG (peptide)
peptide: LATEKSRWSG
notes: also called BRAF, V600E
For B15, the values for the IC50 in assay [15] and in [17] were 46600 nM and 23300 nM, respectively. In addition, the “Stability (T1/2 (h))” value in assay [16] and in [18] was 0 h in each case.

B16: KPTRAATVSV (peptide)
peptide: KPTRAATVSV
notes: also called TP53, QPSL
Regarding B16, in assay [1], the “Stability (T1/2 (h))” value was found to be 3 h. For the same molecule, the IC50 in assay [3] was 8 nM.

B17: SLKKVPALK (peptide)
peptide: SLKKVPALK
notes: also called SMAP1(-1)
Regarding B17, the IC50 in assay [19] stood at 4.4 nM; in [20] it was 129 nM.

B18: YMFLKAESK (peptide)
peptide: YMFLKAESK
notes: also called GATA3 . . ; CSNH
For the molecule B18, the IC50 in assay [21] came to 79.8 nM. Further, the “Observed MHC Stability” value in [22] was 0.3 h.

B19: KPKRDGYMFL (peptide)
peptide: KPKRDGYMFL
notes: also called GATA3 . . ; CSNH
Turning to B19, the IC50 in assay [12] came to 98.1 nM. The “Observed MHC Stability” value in assay [14] was determined as 3.3 h.

B20: MFATLQRSSL (peptide)
peptide: MFATLQRSSL
notes: also called GATA3 . . ; CSNH
Turning to B20, in assay [12], the IC50 was 267 nM. Moreover, the “Observed MHC Stability” value in assay [13] and in [14] was 0 h throughout.

B21: LATEKSRWS (peptide)
peptide: LATEKSRWS
notes: also called BRAF, V600E
B21: the values for the IC50 in [15] and in [17] were 37000 nM and 61000 nM, respectively. The “Stability (T1/2 (h))” value in assay [16] and in assay [18] was 0 h each time.

B22: GPPARVPAV (peptide)
peptide: GPPARVPAV
notes: also called GATA3 . . ; CSNH
The molecule B22 returned an IC50 in [12] of 221 nM. For the same molecule, in assay [14], the “Observed MHC Stability” value turned out to be 1.6 h.

B23: EGFR_T790M peptide MQLMPFGCL (peptide)
peptide: MQLMPFGCL
notes: as for B9
Take B23: the “Stability (half-life (hr.))” value in assay [10] was found to be 0 h.

B24: CLSFLSSWDY (peptide)
peptide: CLSFLSSWDY
notes: also called C15ORF40(+1)
For B24, the IC50 in assay [9] turned out to be 2710 nM; in assay [8], 987 nM.

B25: YPAYSKDSGL (peptide)
peptide: YPAYSKDSGL
notes: also called β2M, . . ; SIRH
Regarding B25, the IC50 in assay [23] was found to be 79.5 nM.

B26: AMTTSSSQK (peptide)
peptide: AMTTSSSQK
notes: also called TGFBR2(-1)
B26: the IC50 in assay [19] was determined as 8.3 nM; in [20], 162 nM.

B27: RLSSCVPVA (peptide)
peptide: RLSSCVPVA
notes: also called TGFBR2(-1)
Take B27: the “Stability (T1/2 (h))” value worked out at 0 h in [4] and 18.7 h in assay [24].

B28: KISNWSLKK (peptide)
peptide: KISNWSLKK
notes: also called SMAP1(-1)
Consider B28, for which the results for the IC50 in assay [19] and in assay [20] were 8.8 nM and 9.8 nM, respectively.

B29: FLPSTLKSL (peptide)
peptide: FLPSTLKSL
notes: also called ESR1, S463P
Molecule B29 had an IC50 in assay [15] of 1970 nM. In addition, the “Stability (T1/2 (h))” value in assay [16] came to 0 h.

B30: VPLYGLLLEM (peptide)
peptide: VPLYGLLLEM
notes: also called ESR1, D538G
Consider B30, for which the IC50 in [23] is 27.9 nM.

B31: LPRKPTRAAT (peptide)
peptide: LPRKPTRAAT
notes: also called TP53, QPSL
On to B31, for which the “Stability (T1/2 (h))” value in [1] is 3.7 h. The same molecule registered an IC50 in assay [3] of 3 nM.

B32: VVVGADGVGK (peptide)
peptide: VVVGADGVGK
notes: also called KRAS, G12D
Regarding B32, the figures for the “Measured stability” value in assay [4] and in [5] were 2.3 h and 13 h, respectively.

B33: VVVGAVGVGK (peptide)
peptide: VVVGAVGVGK
notes: also called KRAS, G12V
On to B33, for which the “Measured stability” value in assay [4] turned out to be 6.7 h; in assay [5] it was 24.3 h.

B34: GATA3 neoORF peptide SIMKPKRDGY (peptide)
peptide: SIMKPKRDGY
Regarding B34, in [11], the binding result is “binds”.

B35: EGFR_T790M peptide IMQLMPFGCL (peptide)
peptide: IMQLMPFGCL
notes: as for B9
In the case of B35, in assay [10], the “Stability (half-life (hr.))” value amounted to 0 h.

B36: EGFR_T790M peptide MQLMPFGCLL (peptide)
peptide: MQLMPFGCLL
notes: as for B9
For the molecule B36, the “Stability (half-life (hr.))” value in assay [10] turned out to be 0 h.

B37: SAMTTSSSQK (peptide)
peptide: SAMTTSSSQK
notes: also called TGFBR2(-1)
With B37, the IC50 in [19] was found to be 15.7 nM; in assay [20], 15.8 nM.
